{
  "source": "patent US20230192897A1",
  "about": "(NUMAB THERAPEUTICS, published 2023)",
  "binders": {"B1": {"name": "PRO1125 (bispecific antibody)", "chain": "DIQMTQSPSSLSASVGDRVTITCQASQSINDYLAWYQQKPGKSPKLLIYKASTLASGVPSRFSGSGSGTDFTLTISSLQPEDFATYYCQQGYIITDIDNVFGTGTKVTVLGGGGGSQVQLQESGPGLVKPSETLSLTCKVSGFSFSNSYWICWIRQPPGKGLEWIGCTFVGSSDSTYYANWAKGRVTISVDSSKNQFSLKLSSVTAADTAVYYCARHPSDAVYGYANNLWGQGTLVTVSSGGGGSGGGGSGGGGSGGGGSIQMTQSPSSLSASVGDRVTITCQASQSINNVLAWYQQKPGKAPKLLIYRASTLASGVPSRFSGSGSGTDFTLTISSLQPEDFATYYCQSSYGNYGDFGTGTKVTVLGGGGGSQVQLQESGPGLVKPSETLSLTCKVSGFSFSSGYDMCWVRQPPGKGLEWIACVVAGSVDITYYASWAKGRVTISVDSSKNQFSLKLSSVTAADTAVYFCARKDAYSDAFNLWGQGTLVTVSS", "notes": "scDb; also called 38-02-A04 sc01 scDb-i/33-03-G02 sc02 IF scDb-o"}, "B2": {"name": "PRO1134 (bispecific antibody)", "chain": "DIQMTQSPSSLSASVGDAVTITCQASQSINDYLAWYQQKPGKSPKLLIYKASTLASGVPSRFSGSGSGTDFTLTISSLQPEDFATYYCQQGYIITDIDNVFGTGTKVTVLGGGGGSQVQLQESGPGLVKPSETLSLTCKVSGFSFSNSYWICWIRQPPGKGLEWIGCTFVGSSDSTYYANWAKGRVTISVDSSKNQFSLKLSSVTAADTAVYYCARHPSDAVYGYANNLWGQGTLVTVSSGGGGSGGGGSGGGGSGGGGSIQMTQSPSSLSASVGDRVTITCQASQSINNVLAWYQQKPGKAPKLLIYRASTLASGVPSRFSGSGSGTDFTLTISSLQPEDFATYYCQSSYGNYGDFGTGTKVTVLGGGGGSEVQLVESGGGLVQPGGSLRLSCAASGFSFSSGYDMCWVRQAPGKGLEWVGCVVAGSVDITYYASWAKGRFTISRDNSKNTVYLQMNSLRAEDTATYYCARKDAYSDAFNLWGPGTLVTVSS", "notes": "scDb; also called 38-02-A04 sc01 scDb-i/33-03-G02 sc07 GL VH3 scDb-o"}},
  "assay_in_all_cases": "SPR",
  "key": {"Fc tagged human PDL1": {"biological_target": "T1, Fc tagged human PDL1 (human, UniProt Q9NZQ7 19-239)", "T1 construct": "Bought (Sino Biological, cat. 10084-H02H); captured on the SPR chip; also called PDL1-Fc chimeric protein", "procedure": "(§1) Affinity to PDL1 of the different species was determined by SPR measurements using a Biacore T200 device (GE Healthcare). An antibody specific for the Fc region of human IgGs was immobilized on a sensor chip (CM5 sensor chip, GE Healthcare) by amine-coupling. For all formats, with the exception of the Fc containing Morrison formats, PDL1-Fc chimeric protein from different species were captured by the immobilized antibody.\n(§2) Three-fold serial dilutions of the molecules specific for PDL1 (0.12-90 nM) were injected into the flow cells for three minutes and dissociation was monitored for 10 minutes. After each injection cycle, surfaces were regenerated with one injection of a 3 M MgCl₂ solution. The apparent dissociation (kd) and association (kₐ) rate constants and the apparent dissociation equilibrium constant (KD) were calculated using one-to-one Langmuir binding model. Affinity to CD137 of the different species was determined using the identical setup as for PDL1 with the exception that CD137-Fc chimeric protein from different species were captured by the immobilized antibody."}, "[1]": {"biological_target": "T2, mouse CD137-Fc chimeric protein (mouse, UniProt P20334 24-187, limits assumed)", "T2 sequence (looked up)": "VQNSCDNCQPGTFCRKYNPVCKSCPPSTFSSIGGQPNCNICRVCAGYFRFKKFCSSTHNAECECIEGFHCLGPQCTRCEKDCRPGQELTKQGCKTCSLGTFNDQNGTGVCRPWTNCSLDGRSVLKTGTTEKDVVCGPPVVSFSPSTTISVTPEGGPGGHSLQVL", "procedure": "as §1, §2"}, "Fc tagged human CD137": {"biological_target": "T3, Fc tagged human CD137 (human, UniProt Q07011 24-186)", "T3 construct": "also called CD137-Fc chimeric protein", "procedure": "as §1, §2"}},
  "data": [
    {"binder": "B1", "values": [
      {"measurement": "Kd", "setting": "Fc tagged human PDL1", "result": 0.067, "unit": "nM"},
      {"measurement": "koff", "setting": "Fc tagged human PDL1", "result": 0.00011, "unit": "s⁻¹"},
      {"measurement": "kon", "setting": "Fc tagged human PDL1", "result": "1.7e+06", "unit": "M⁻¹ s⁻¹"},
      {"measurement": "Kd", "setting": "[1]", "result": 510, "unit": "nM"},
      {"measurement": "koff", "setting": "[1]", "result": 0.27, "unit": "s⁻¹"},
      {"measurement": "Kd", "setting": "Fc tagged human CD137", "result": 3.7, "unit": "nM"},
      {"measurement": "kon", "setting": "Fc tagged human CD137", "result": 200000, "unit": "M⁻¹ s⁻¹"}
    ]},
    {"binder": "B2", "values": [
      {"measurement": "koff", "setting": "Fc tagged human PDL1", "result": "7.6e-05", "unit": "s⁻¹"},
      {"measurement": "kon", "setting": "Fc tagged human PDL1", "result": "2.8e+06", "unit": "M⁻¹ s⁻¹"},
      {"measurement": "Kd", "setting": "[1]", "result": 420, "unit": "nM"},
      {"measurement": "Kd", "setting": "Fc tagged human CD137", "result": 3.4, "unit": "nM"},
      {"measurement": "koff", "setting": "Fc tagged human CD137", "result": 0.00084, "unit": "s⁻¹"},
      {"measurement": "kon", "setting": "Fc tagged human CD137", "result": 250000, "unit": "M⁻¹ s⁻¹"}
    ]}
  ]
}
